# Article PMC8199036, “Improved Tumor-Targeting with Peptidomimetic Analogs of Minigastrin ^177Lu-PP-F11N” (Cancers, 2021)
# Where two headings read alike, the source gives them in different places. Residues, ends and D or L forms follow the SMILES beside them.
# Key:
# [1] = biodistribution in mice with CCK2R-positive xenografts; assay type: in vivo, female CD1-nu mice; conditions: female, CD1-nu, mouse, total radioactivity; for tissue uptake at 4 h / tissue uptake at 24 h / tissue uptake at 1 h: in vivo
# Procedure: (§1) Procedures for biodistribution studies with ^177Lu-labeled conjugates (10 pmol, 100 µL, 0.1 µM in PBS, 0.5 MBq, 1 µg/kg) in female CD1-nu mice with xenografts of A431-CCK2R cells at 1, 4, and 24 h p.i., as well as blocking experiments at 4 h p.i. with a 6000-fold excess of minigastrin have been reported previously and were followed without modifications. Statistical analysis was performed via GraphPad Prism using two-sided analysis of variance. n = 4 animals per group.
# [2] = system: xenografts of A431-CCK2R cells; assay: as above; assay type: in vivo, female CD1-nu mice
# Procedure: as §1
# [3] = 10 pmol, Stomach (CCK2R-positive) uptake
# [4] = 10 pmol, Tumor (CCK2R-positive) uptake
# [5] = tumor / blood, 10 pmol, read-out: Tumor-to-Blood ratio
# [6] = tumor / kidneys, 10 pmol, read-out: Tumor-to-Kidneys ratio
# [7] = tumor / muscle, 10 pmol, read-out: Tumor-to-Muscle ratio
# [8] = tumor / stomach, 10 pmol, read-out: Tumor-to-Stomach ratio
# [9] = female, CD1-nu, mouse, in vivo, 10 pmol, 4 h
compound,measurement,setting,value
"CCCC[C@H](NC(=O)[C@H](Cc1c[nH]c2ccccc12)NC(=O)Cn1cc([C@H](Cc2ccc(O)cc2)NC(=O)[C@H](C)NC(=O)[C@@H](CCC(=O)O)NC(=O)[C@@H](CCC(=O)O)NC(=O)[C@@H](CCC(=O)O)NC(=O)[C@@H](CCC(=O)O)NC(=O)[C@@H](CCC(=O)O)NC(=O)[C@@H](CCC(=O)O)NC(=O)CN2CCN(CC(=O)O)CCN(CC(=O)O)CCN(CC(=O)O)CC2)nn1)C(=O)N[C@@H](CC(=O)O)C(=O)N[C@@H](Cc1ccccc1)C(N)=O [NMG 2, DOTA-(DGlu)6-Ala-Tyr-Ψ[Tz]-Gly-Trp-Nle-Asp-Phe-NH2] (HELM PEPTIDE1{[O=C(O)CN1CCN(CC(=O)O)CCN(CC(=O)[*:2])CCN(CC(=O)O)CC1].[dE].[dE].[dE].[dE].[dE].[dE].A.[O=C(Cn1cc([C@H](Cc2ccc(O)cc2)N[*:1])nn1)[*:2]].W.[Nle].D.F.[am]}$$$$V2.0)",tissue uptake at 4 h,"[1]; 10 pmol, Blood uptake",0.01 %ID/g
same,tissue uptake at 24 h,"[1]; 10 pmol, Blood uptake",< 0.01 %ID/g
same,tissue uptake at 1 h,"[1]; 10 pmol, Bone uptake",0.29 %ID/g
same,tissue uptake at 4 h,"[1]; 10 pmol, Bone uptake",0.1 %ID/g
same,tissue uptake at 24 h,"[1]; 10 pmol, Bone uptake",0.07 %ID/g
same,tissue uptake at 1 h,"[1]; 10 pmol, Heart uptake",0.07 %ID/g
same,tissue uptake at 4 h,"[1]; 10 pmol, Heart uptake",0.02 %ID/g
same,tissue uptake at 24 h,"[1]; 10 pmol, Heart uptake",0.01 %ID/g
same,tissue uptake at 1 h,"[1]; 10 pmol, Intestines uptake",0.15 %ID/g
same,tissue uptake at 4 h,"[1]; 10 pmol, Intestines uptake",0.07 %ID/g
same,tissue uptake at 24 h,"[1]; 10 pmol, Intestines uptake",0.06 %ID/g
same,tissue uptake at 1 h,"[1]; 10 pmol, Kidneys uptake",2.19 %ID/g
same,tissue uptake at 4 h,"[1]; 10 pmol, Kidneys uptake",2.07 %ID/g
same,tissue uptake at 24 h,"[1]; 10 pmol, Kidneys uptake",1.33 %ID/g
same,tissue uptake at 1 h,"[1]; 10 pmol, Liver uptake",0.11 %ID/g
same,tissue uptake at 4 h,"[1]; 10 pmol, Liver uptake",0.05 %ID/g
same,tissue uptake at 24 h,"[1]; 10 pmol, Liver uptake",0.03 %ID/g
same,tissue uptake at 1 h,"[1]; 10 pmol, Lung uptake",0.18 %ID/g
same,tissue uptake at 4 h,"[1]; 10 pmol, Lung uptake",0.04 %ID/g
same,tissue uptake at 24 h,"[1]; 10 pmol, Lung uptake",0.02 %ID/g
same,tissue uptake at 1 h,"[1]; 10 pmol, Muscle uptake",0.05 %ID/g
same,tissue uptake at 4 h,"[1]; 10 pmol, Muscle uptake",0.01 %ID/g
same,tissue uptake at 24 h,"[1]; 10 pmol, Muscle uptake",0.01 %ID/g
same,tissue uptake at 1 h,"[1]; 10 pmol, Pancreas uptake",0.33 %ID/g
same,tissue uptake at 4 h,"[1]; 10 pmol, Pancreas uptake",0.28 %ID/g
same,tissue uptake at 24 h,"[1]; 10 pmol, Pancreas uptake",0.17 %ID/g
same,tissue uptake at 1 h,"[1]; 10 pmol, Spleen uptake",0.06 %ID/g
same,tissue uptake at 4 h,"[1]; 10 pmol, Spleen uptake",0.03 %ID/g
same,tissue uptake at 24 h,"[1]; 10 pmol, Spleen uptake",0.02 %ID/g
same,tissue uptake at 1 h,[1]; [3],2.85 %ID/g
same,tissue uptake at 4 h,[1]; [3],2.66 %ID/g
same,tissue uptake at 24 h,[1]; [3],1.63 %ID/g
same,tissue uptake at 1 h,[1]; [4],5.94 %ID/g
same,tissue uptake at 4 h,[1]; [4],7.15 %ID/g
same,tissue uptake at 24 h,[1]; [4],4.73 %ID/g
same,tissue uptake at 4 h,[1]; Blood uptake,0.01 %ID/g
same,tissue uptake at 4 h,[1]; Heart uptake,0.02 %ID/g
same,tissue uptake at 4 h,[1]; Intestines uptake,0.1 %ID/g
same,tissue uptake at 4 h,[1]; Kidneys uptake,2.24 %ID/g
same,tissue uptake at 4 h,[1]; Liver uptake,0.06 %ID/g
same,tissue uptake at 4 h,[1]; Lung uptake,0.04 %ID/g
same,tissue uptake at 4 h,[1]; Pancreas uptake,0.06 %ID/g
same,tissue uptake at 4 h,[1]; Spleen uptake,0.03 %ID/g
same,tissue uptake at 4 h,[1]; Stomach (CCK2R-positive) uptake,0.46 %ID/g
same,tissue uptake at 4 h,[1]; Tumor (CCK2R-positive) uptake,2.54 %ID/g
same,tissue to tissue ratio at 1 h,[1]; [5],31.1 ± 10.3
same,tissue to tissue ratio at 4 h,[1]; [5],715 ± 133
same,tissue to tissue ratio at 24 h,[1]; [5],4260 ± 1690
same,tissue to tissue ratio at 1 h,[1]; [6],2.76 ± 0.79
same,tissue to tissue ratio at 4 h,[1]; [6],3.5 ± 0.54
same,tissue to tissue ratio at 24 h,[1]; [6],3.78 ± 1.48
same,tissue to tissue ratio at 1 h,[1]; [7],124 ± 42.1
same,tissue to tissue ratio at 4 h,[1]; [7],715 ± 133
same,tissue to tissue ratio at 24 h,[1]; [7],441 ± 73.7
same,tissue to tissue ratio at 1 h,[1]; [8],2.68 ± 1.57
same,tissue to tissue ratio at 4 h,[1]; [8],3.08 ± 1.1
same,tissue to tissue ratio at 24 h,[1]; [8],3.13 ± 1.28
same,Tumor washout: tumor uptake relative to 1h,[2]; 4 h,120%
same,Tumor washout: tumor uptake relative to 1h,[2]; 24 h,80%
same,Bone uptake,[2]; [9],0.09 % i.A./g
same,Muscle uptake,[2]; [9],0.02 % i.A./g
